Experiments:
[1] = target: Bos1-FisC model TA substrate labelled with Cm (S. cerevisiae); experiment: FRET or BRET; equilibrium titration of TA transfer from Sgt2 to Get3: 20-50 nM purified Sgt2•TA^Cm, 150 nM Sgt2, 150 nM Get4/5, 2 mM ATP, varied Get3^BDP; GET buffer, 25°C; apparent K1/2 at 150 nM Sgt2
[2] = target: 3AG model TA substrate labelled with Cm (S. cerevisiae) (UniProt P25385); experiment: as above
[3] = target: 4AG model TA substrate labelled with Cm (S. cerevisiae) (UniProt P25385); experiment: as above
[4] = target: 5AG model TA substrate labelled with Cm (S. cerevisiae) (UniProt P25385); experiment: as above
[5] = target: 2AG model TA substrate labelled with Cm (S. cerevisiae) (UniProt P25385); experiment: as above
[6] = target: Bos1 model TA substrate labelled with 7-hydroxycoumaryl ethylglycine (Cm) (S. cerevisiae) (UniProt P25385); experiment: as above
[7] = target: Bos1-FisC model TA substrate labelled with Cm (S. cerevisiae); experiment: FRET or BRET; stopped-flow time courses of TA transfer with Get4/5: ~50 nM Sgt2•TA^Cm in 150 nM Sgt2 mixed 1:1 with 400 nM Get3^BDP, 400 nM Get4/5, 2 mM ATP; donor fluorescence at 445 nm; biphasic fit
[8] = target: 3AG model TA substrate labelled with Cm (S. cerevisiae) (UniProt P25385); experiment: as above
[9] = target: 4AG model TA substrate labelled with Cm (S. cerevisiae) (UniProt P25385); experiment: as above
[10] = target: 5AG model TA substrate labelled with Cm (S. cerevisiae) (UniProt P25385); experiment: as above
[11] = target: 2AG model TA substrate labelled with Cm (S. cerevisiae) (UniProt P25385); experiment: as above
[12] = target: Bos1 model TA substrate labelled with 7-hydroxycoumaryl ethylglycine (Cm) (S. cerevisiae) (UniProt P25385); experiment: as above
[13] = target: Bos1 model TA substrate labelled with 7-hydroxycoumaryl ethylglycine (Cm) (S. cerevisiae) (UniProt P25385); experiment: FRET or BRET; stopped-flow time course of TA transfer from Sgt2 to Get3^BDP without Get4/5
[14] = target: Bos1-FisC model TA substrate labelled with Cm (S. cerevisiae); experiment: FRET or BRET; pulse-chase: 20-50 nM preformed purified Get3^BDP•TA^Cm chased with a 10-fold excess of unlabeled Get3; loss of FRET followed in time
[15] = target: 3AG model TA substrate labelled with Cm (S. cerevisiae) (UniProt P25385); experiment: as above
[16] = target: 4AG model TA substrate labelled with Cm (S. cerevisiae) (UniProt P25385); experiment: as above
[17] = target: 5AG model TA substrate labelled with Cm (S. cerevisiae) (UniProt P25385); experiment: as above
[18] = target: 2AG model TA substrate labelled with Cm (S. cerevisiae) (UniProt P25385); experiment: as above
[19] = target: Bos1 model TA substrate labelled with 7-hydroxycoumaryl ethylglycine (Cm) (S. cerevisiae) (UniProt P25385); experiment: as above
[20] = target: 6AG model TA substrate labelled with Cm (S. cerevisiae) (UniProt P25385); experiment: as above

K1/2 (Get3 for 50% TA transfer from Sgt2, at 150 nM Sgt2) [1]: 9.2 nM
K1/2 (Get3 for 50% TA transfer from Sgt2, at 150 nM Sgt2) [2]: 3.7 nM
K1/2 (Get3 for 50% TA transfer from Sgt2, at 150 nM Sgt2) [3]: 5.7 nM
K1/2 (Get3 for 50% TA transfer from Sgt2, at 150 nM Sgt2) [4]: 10 nM
K1/2 (Get3 for 50% TA transfer from Sgt2, at 150 nM Sgt2) [5]: 6.4 nM
K1/2 (Get3 for 50% TA transfer from Sgt2, at 150 nM Sgt2) [6]: 5.2 nM
k fast of TA transfer from Sgt2 to Get3 (fast phase) [7]: 0.063 s⁻¹
k slow of TA transfer from Sgt2 to Get3 (slow phase) [7]: 0.009 s⁻¹
t1/2 of TA transfer from Sgt2 to Get3 [7]: 12.3 s
k fast of TA transfer from Sgt2 to Get3 (fast phase) [8]: 0.164 s⁻¹
k slow of TA transfer from Sgt2 to Get3 (slow phase) [8]: 0.017 s⁻¹
t1/2 of TA transfer from Sgt2 to Get3 [8]: 4.8 s
k fast of TA transfer from Sgt2 to Get3 (fast phase) [9]: 0.183 s⁻¹
k slow of TA transfer from Sgt2 to Get3 (slow phase) [9]: 0.033 s⁻¹
t1/2 of TA transfer from Sgt2 to Get3 [9]: 6.3 s
k fast of TA transfer from Sgt2 to Get3 (fast phase) [10]: 0.151 s⁻¹
k slow of TA transfer from Sgt2 to Get3 (slow phase) [10]: 0.023 s⁻¹
t1/2 of TA transfer from Sgt2 to Get3 [10]: 11.8 s
k fast of TA transfer from Sgt2 to Get3 (fast phase) [11]: 0.077 s⁻¹
k slow of TA transfer from Sgt2 to Get3 (slow phase) [11]: 0.007 s⁻¹
t1/2 of TA transfer from Sgt2 to Get3 [11]: 13.5 s
k fast of TA transfer from Sgt2 to Get3 (fast phase) [12]: 0.047 s⁻¹
k slow of TA transfer from Sgt2 to Get3 (slow phase) [12]: 0.011 s⁻¹
t1/2 of TA transfer from Sgt2 to Get3 [12]: 17.7 s
k fast of TA transfer from Sgt2 to Get3 (fast phase) [13]: 0.0094 s⁻¹
k slow of TA transfer from Sgt2 to Get3 (slow phase) [13]: 0.003 s⁻¹
t1/2 of TA transfer from Sgt2 to Get3 [13]: 98 s
koff [14]: 0.000483 s⁻¹
koff [15]: 0.000433 s⁻¹
koff [16]: 0.000283 s⁻¹
koff [17]: 0.000567 s⁻¹
koff [18]: 0.000383 s⁻¹
koff [19]: 0.0003 s⁻¹
koff [20]: 0.00333 s⁻¹
B1: BODIPY-FL-labeled ybbR-Get3 (enzyme)
chain: MDLTVEPNLHSLITSTTHKWIFVGGKGGVGKTTSSCSIAIQMALSQPNKQFLLISTDPAHNLSDAFGEKFGKDARKVTGMNNLSCMEIDPSAALKDMNDMAVSRANNNGSDGQGDDLGSLLQGGALADLTGSIPGIDEALSFMEVMKHIKRQEQGEGETFDTVIFDTAPTGHTLRFLQLPNTLSKLLEKFGEITNKLGPMLNSFMGAGNVDISGKLNELKANVETIRQQFTDPDLTTFVCVCISEFLSLYETERLIQELISYDMDVNSIIVNQLLFAENDQEHNCKRCQARWKMQKKYLDQIDELYEDFHVVKMPLCAGEIRGLNNLTKFSQFLNKEYNPITDGKVIYELEDKE
modifications: CoA-BODIPY-FL enzymatically conjugated to the ybbR tag by the Sfp phosphopantetheinyl transferase

From PMC5214336
